The results in this text go back to the RNAGym collection of RNA variant scans (doi:10.1093/molbev/msab373).

B1: Azoarcus group I ribozyme (parent)
chain: GUGCCUUGCGCCGGGAAACCACGCAAGGGAUGGUGUCAAAUUCGGCGAAACCUAAGCGCCCGCCCGGGCGUAUGGCAACGCCGAGCCAAGCUUCGGCGCCUGCGCCGAUGAAGGUGUAGAGACUAGACGGCACCCACCUAAGGCAAACGCUAUGGUGAAGGCAUAGUCCAGGGAGUGGCGAAAGUCACACAAACCGG

In the data set the parent is B1. Briefly: reverse-splicing fitness (ratio to wild type); higher = more active; in vitro selection; Mg2+ level not given. In short, it runs like this:
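An in vitro group I ribozyme library with randomized positions was T7-transcribed and gel-purified. In triplicate, 10 pmol RNA in EPPS pH 7.5 was reacted with 50 pmoles of a 30-nt RNA substrate for 1 h at 37 °C across several added MgCl2 levels (1–48 mM), then stopped with EDTA. Products were reverse transcribed from a substrate-complementary primer, PCR-amplified and sequenced (HiSeq 4000). Fitness is a variant's read proportion after selection over that before, normalised to wild type.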
With GUGCCUUGCGCCGGGAAACCACGCAAGGGAUGGUGUCAAAUUCGGCGAAACCUAAGCGCCCGCCCGGGCGUAUGGCAACGCAGAGCCAAGCUUCGGCGCCUGCGCCGAUGCAGGUGUAGAGACUAGACGGCACCCACCUAAGGCCAACGCUAUGGUGAAGGCAUAGUCCAGGGAGCGGCGAAAGUCACACAAACCGG [C82A A111C A145C U176C], the reverse-splicing fitness came to 0.0878.
Consider GUGCCUUGCGCCGGGAAACCACGCAAGGGAUGGUGUCAAAUUCGGCGAAACCUAAGCGCCCGCCCGGGCGUAUGGCAACGCAGAGCCAAGCUUCGGCGCCUGCGCCGAUGCAGGUGUAGAGACUAGACGGCACCCACCUAAGGCCAACGCUAUGGUGAAGGCAUAGUCCAGGGAGAGGCGAAAGUCACACAAACCGG [C82A A111C A145C U176A], for which the reverse-splicing fitness came out at 0.0639.
Turning to GUGCCUUGCGCCGGGAAACCACGCAAGGGAUGGUGUCAAAUUCGGCGAAACCUAAGCGCCCGCCCGGGCGUAUGGCAACGCAGAGCCAAGCUUCGGCGCCUGCGCCGAUGCAGGUGUAGAGACUAGACGGCACCCACCUAAGGCCAACGUUAUGGUGAAGGCAUAGUCAAGGGAGAGGCGAAAGUCACACAAACCGG [C82A A111C A145C C150U C169A U176A], the reverse-splicing fitness was 0.0127.
The value for GUGCCUUGCGCCGGGAAACCACGCAAGGGAUGGUGUCAAAUUCGGCGAAACCUAAGCGCCCGCCCGGGCGUAUGGCAACGCAGAGCCAAGCUUCGGCGCCUGCGCCGAUGCAGGUGUAGAGACUAGACGGCACCCACCUAAGGCCAACGUUAUGGUGAAGGCAUAGUCAAGGGAGCGGCGAAAGUCACACAAACCGG [C82A A111C A145C C150U C169A U176C] was 0.01; that for GUGCCUUGCGCCGGGAAACCACGCAAGGGAUGGUGUCAAAUUCGGCGAAACCUAAGCGCCCGCCCGGGCGUAUGGCAACGCAGAGCCAAGCUUCGGCGCCUGCGCCGAUGCAGGUGUAGAGACUAGACGGCACCCACCUAAGGCCAACGUUAUGGUGAAGGCAUAGUCAAGGGAGGGGCGAAAGUCACACAAACCGG [C82A A111C A145C C150U C169A U176G] was 0.0095; that for GUGCCUUGCGCCGGGAAACCACGCAAGGGAUGGUGUCAAAUUCGGCGAAACCUAAGCGCCCGCCCGGGCGUAUGGCAACGCAGAGCCAAGCUUCGGCGCCUGCGCCGAUGCAGGUGUAGAGACUAGACGGCACCCACCUAAGGCCAACGUUAUGGUGAAGGCAUAGUCUAGGGAGCGGCGAAAGUCACACAAACCGG [C82A A111C A145C C150U C169U U176C] was 0.0108.
For GUGCCUUGCGCCGGGAAACCACGCAAGGGAUGGUGUCAAAUUCGGCGAAACCUAAGCGCCCGCCCGGGCGUAUGGCAACGCAGAGCCAAGCUUCGGCGCCUGCGCCGAUGCAGGUGUAGAGACUAGACGGCACCCACCUAAGGCCAACGUUAUGGUGAAGGCAUAGUCUAGGGAGAGGCGAAAGUCACACAAACCGG [C82A A111C A145C C150U C169U U176A], the reverse-splicing fitness amounted to 0.0133.
In the case of GUGCCUUGCGCCGGGAAACCACGCAAGGGAUGGUGUCAAAUUCGGCGAAACCUAAGCGCCCGCCCGGGCGUAUGGCAACGCAGAGCCAAGCUUCGGCGCCUGCGCCGAUGCAGGUGUAGAGACUAGACGGCACCCACCUAAGGCCAACGUUAUGGUGAAGGCAUAGUCUAGGGAGGGGCGAAAGUCACACAAACCGG [C82A A111C A145C C150U C169U U176G] it was 0.00776; in that of GUGCCUUGCGCCGGGAAACCACGCAAGGGAUGGUGUCAAAUUCGGCGAAACCUAAGCGCCCGCCCGGGCGUAUGGCAACGCAGAGCCAAGCUUCGGCGCCUGCGCCGAUGCAGGUGUAGAGACUAGACGGCACCCACCUAAGGCCAACGUUAUGGUGAAGGCAUAGUCGAGGGAGGGGCGAAAGUCACACAAACCGG [C82A A111C A145C C150U C169G U176G], 0.00845.
With GUGCCUUGCGCCGGGAAACCACGCAAGGGAUGGUGUCAAAUUCGGCGAAACCUAAGCGCCCGCCCGGGCGUAUGGCAACGCAGAGCCAAGCUUCGGCGCCUGCGCCGAUGCAGGUGUAGAGACUAGACGGCACCCACCUAAGGCCAACGUUAUGGUGAAGGCAUAGUCGAGGGAGAGGCGAAAGUCACACAAACCGG [C82A A111C A145C C150U C169G U176A], the reverse-splicing fitness is 0.0253.
Turning to GUGCCUUGCGCCGGGAAACCACGCAAGGGAUGGUGUCAAAUUCGGCGAAACCUAAGCGCCCGCCCGGGCGUAUGGCAACGCAGAGCCAAGCUUCGGCGCCUGCGCCGAUGCAGGUGUAGAGACUAGACGGCACCCACCUAAGGCCAACGUUAUGGUGAAGGCAUAGUCGAGGGAGCGGCGAAAGUCACACAAACCGG [C82A A111C A145C C150U C169G U176C], the reverse-splicing fitness was found to be 0.0195.
The value for GUGCCUUGCGCCGGGAAACCACGCAAGGGAUGGUGUCAAAUUCGGCGAAACCUAAGCGCCCGCCCGGGCGUAUGGCAACGCAGAGCCAAGCUUCGGCGCCUGCGCCGAUGCAGGUGUAGAGACUAGACGGCACCCACCUAAGGCCAACGUUAUGGUGAAGGCAUAGUCCAGGGAGUGGCGAAAGUCACACAAACCGG [C82A A111C A145C C150U] was 0.0486; that for GUGCCUUGCGCCGGGAAACCACGCAAGGGAUGGUGUCAAAUUCGGCGAAACCUAAGCGCCCGCCCGGGCGUAUGGCAACGCAGAGCCAAGCUUCGGCGCCUGCGCCGAUGCAGGUGUAGAGACUAGACGGCACCCACCUAAGGCCAACGCUAUGGUGAAGGCAUAGUCUAGGGAGUGGCGAAAGUCACACAAACCGG [C82A A111C A145C C169U] was 0.0124.
In the case of GUGCCUUGCGCCGGGAAACCACGCAAGGGAUGGUGUCAAAUUCGGCGAAACCUAAGCGCCCGCCCGGGCGUAUGGCAACGCAGAGCCAAGCUUCGGCGCCUGCGCCGAUGCAGGUGUAGAGACUAGACGGCACCCACCUAAGGCCAACGCUAUGGUGAAGGCAUAGUCGAGGGAGUGGCGAAAGUCACACAAACCGG [C82A A111C A145C C169G] it was 0.00923.
As to GUGCCUUGCGCCGGGAAACCACGCAAGGGAUGGUGUCAAAUUCGGCGAAACCUAAGCGCCCGCCCGGGCGUAUGGCAACGCAGAGCCAAGCUUCGGCGCCUGCGCCGAUGCAGGUGUAGAGACUAGACGGCACCCACCUAAGGCCAACGCUAUGGUGAAGGCAUAGUCAAGGGAGUGGCGAAAGUCACACAAACCGG [C82A A111C A145C C169A], the reverse-splicing fitness was 0.00711.
